± gives the uncertainty stated by the source.
Experiment: amyloid nucleation score (Sup35N fusion, yeast selection) (log enrichment); library NNK1; higher = more nucleation; inactive = no reads after selection
How it was run: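 Output and input plasmid inserts were sequenced by Illumina after psi-negative yeast carrying Sup35N fused to peptides of 20 random codons had been induced 24 hours with 100 μM copper sulfate and grown 7 days at 30°C on medium lacking adenine and uracil. The nucleation score is the DiMSum log enrichment of output over input reads, centred on the mode score of non-aggregating sequences. Sequences with under 100 input reads were excluded.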

Substance | amyloid nucleation score
KIVRSRWFIICACVKLRTRL | 0.427 ± 0.36
RSCSNRIIKCNLSHVMFY | 4.45 ± 0.052
SFFLIIVQREKRVRTSGCL | 0.954 ± 0.8
LGSILV | -0.751 ± 0.94
HCNSNVTWKV | 0.414 ± 0.63
SRLEHRFLICNPELYVNFFM | 6.799 ± 0.047
WILVGMGLGFHFFW | 0.86 ± 1.1
ESTLNRVRVTALETVQQCLS | 0.275 ± 1.2
MSIVCFCW | 8.155 ± 0.047
QWGTREYGIFLDIFVHVTVN | 0.237 ± 0.56
QTSLMMWLRR | inactive
EISVWVEALFSLYFRNWISG | 0.229 ± 0.84
IIIRRISGGFAVPSYAHLHS | 0.53 ± 0.32
ITSNHSVWGIMLLKLVTGSI | 0.496 ± 0.48
VLCPW | -0.283 ± 0.44
RFWSIDRCAWSLMGGILRYG | -0.01 ± 0.43
IVEFASFSVQVNARNDLHLV | 1.73 ± 0.28
WHSSSLMWHNKLS | inactive
GVASNYPNHLVLNSR | -0.211 ± 0.34
CLIESIWKLVVSNGSKYISY | -0.181 ± 0.18
EECAFYSSMK | inactive
YRSGSMLCNYPSRAVTVCWS | 1.16 ± 0.38
ARVSRSFVSRAANIHGNCRR | -0.029 ± 1.1
GDQSM | 0.262 ± 0.31
RRSMGRGVLVKGRGSCREYV | 0.251 ± 0.81

Substance | amyloid nucleation score
DYIIPMLSI | 0.515 ± 0.9
FHAWSVFFIVRCLTEVRGYL | -0.081 ± 0.34
SFYVWDDSYCFVFGCTSVKC | -0.291 ± 0.47
SLSPWWIHANPWWPYMSNQV | inactive
YDRVLNLSDSWCTNAAPWWG | 0.394 ± 0.43
RVYLFNYICGGLDFFLRPTV | 5.37 ± 0.081
IKSVVLS | 0.043 ± 0.63
CRIQFSSVRMDDSCAQGRKD | 0.504 ± 0.67
SYSIYALGSRLIVEYSYKWI | 0.625 ± 0.39
RLSGGLADHNIFNFRIT | 0.805 ± 0.76
FGGKHFYVGGRFGLLNMCDF | -0.548 ± 2.1
LVISSRREKR | 0.009 ± 0.57
RYIVVG | 0.106 ± 0.24
GNVRYAPYVVGIKLIRANSC | -0.381 ± 0.81
LVGTTRLMRFWSRVMT | -0.171 ± 0.41
YFMTHRGLCRCISLSYNFKI | -0.957 ± 0.98
FDNLWRQYYVIGWILARAFS | -0.983 ± 0.9
VSTGWKRLKFQLVIGCFS | 0.502 ± 0.53
TRNVMFINVALHFSNLVGWC | 4.21 ± 0.12
ENVSVIRFQRRYRSCPDHGL | 0.04 ± 0.46
IEAYYGIPDVKHMLVYLRQD | -0.284 ± 0.7
VVVFSTF | -0.376 ± 1.4
ILFSNCSFLKSCYWFK | 7.25 ± 0.085
QFSHNRIMLDQTWKNVVKGL | -0.001 ± 0.37
MDKSELK | 0.128 ± 0.86

Substance | amyloid nucleation score
YATGDCDVLMYRLGMNKKSS | 0.488 ± 0.45
GPRAN | -1.55 ± 2.7
VPVYNMNFYAVLHILSFCLD | 4.18 ± 0.057
WLAHRNWLC | 0.103 ± 0.7
TIVLLNCISIRLSIRFMFIP | -0.251 ± 1
NLALITWFESYCQTMRSAWI | -0.145 ± 0.26
RHVSPFNSS | -0.222 ± 0.31
YFKLIVLVGLNAREWRAAMV | -0.221 ± 0.4
GRFRARIHCSPQARVTFVAS | -0.113 ± 0.71
AFGADKTRYMSVFTKCVS | 0.253 ± 0.37
LTRDLMCEPVLCGLLPVSGR | 0.314 ± 1.4
TYCNQWIGCMGYRKKHEPR | -0.077 ± 0.41
FLCEAFDQGNLVIIDP | -0.502 ± 0.46
ISGAN | -0.06 ± 0.44
TRSKMALGVQYHGLMQLYCR | 0.121 ± 0.31
CISIACSAD | 0.342 ± 0.73
YELKSDNLFVRLF | -0.706 ± 0.46
VLSDSDINMRLEKEFYVIIS | inactive
LISLRVHYAASLFFFPVDDF | 0.998 ± 0.93
FYHFALFGVCARVPSDLACV | inactive
VGKELLLSLRYSNWVCLDWF | -0.715 ± 1.4
LRNVVSYREDFECSWGCHRG | 0.724 ± 0.32
CESCAACMRHYRWLGFQSYI | -1.5 ± 2.4
RKFMDYSLKFSWRGVIPVMR | -1.83 ± 1.8
LCAISHIE | -0.502 ± 0.28

Substance | amyloid nucleation score
SSNWLRY | 0.692 ± 0.66
NDTFSYCSTSGDRFGT | 1.4 ± 0.24
KMRILWVV | 0.945 ± 0.51
RLSHRM | -0.994 ± 0.54
DSLWLRYVFMRTVLLMVHVR | inactive
LWWSSSLLASTAQCQGTGFM | -0.255 ± 0.76
GLFMGWYDRMP | 0.265 ± 0.6
QLRHLHSNVLLRDIWLGFKF | -1.01 ± 1.7
TSFLWLLTFERFD | inactive
APKITGQTSNVGTRA | -0.028 ± 0.52
SMSPVSSVTN | 0.07 ± 0.35
LFKLSLGCTYCSFA | -0.292 ± 0.42
QVTVRM | 0.987 ± 0.24
LVTMLLNKYIVNRSHDGVRI | 0.966 ± 0.49
LIFVKDVTLVMHGEERYRRS | 5.508 ± 0.049
IVSKFSYQFKSIGINFYFFR | 4.18 ± 0.12
CKRNQTTVSVVGWFI | -0.227 ± 1.2
SLVAGVVFVFMYRVPKIGLV | -0.807 ± 1.2
PSQRNKIPGMLSLYY | -0.193 ± 0.57
NMQLAPTGPNTVPISYDLFP | -1.46 ± 2.4
YIYYSNFCPDRLIVFINAMT | inactive
FWVGP | -0.217 ± 0.51
YMDGVPG | 0.042 ± 1.2
FIVFISFSFWRVTGIR | -0.139 ± 0.59
CDWNLSNGGYGDHARCSGSA | 5.13 ± 0.069

Substance | amyloid nucleation score
ALPYVYRTLVNNLLIPSSGL | 1.02 ± 0.67
FIITWILTKNMKLGEVYSIS | -0.132 ± 0.72
FIWSVTYSGP | 1.48 ± 0.72
ANIYGWDDPYFEQL | 0.045 ± 0.75
LCSNYQCLTTVYQLVVVAEW | 3.54 ± 0.13
RSTYVCKIRVRMIYVDVKCS | 0.596 ± 0.46
IYACTYY | 0.184 ± 0.45
QDIQSISWHAFVVESFKSEK | -0.094 ± 0.32
FNVAAVVGWMKRLIDRSRNT | 1.3 ± 0.88
TFGNLRMDVRAPTRFKDLLK | 1.27 ± 0.47
ILESCIWDITRLRWPYGSSW | 0.741 ± 0.21
KGKTVVSEDGEQCHLGCSRT | -0.079 ± 0.33
LQRCAKLYSMSILTYAIIRF | -0.525 ± 0.28
GSLKEMEKHPWKKATTYQYA | 1.47 ± 0.23
YLIMGNVFNVAVVGGIGCVE | 0.345 ± 0.29
YIFSHDKGMRR | 2.49 ± 0.25
LRMFFDSTTILKLYERSWNI | 0.777 ± 1.2
HTWMSLRGVAFTCQ | -0.13 ± 0.3
LRYIMPDND | -1.09 ± 1.5
NCFRTSCKSGEWLQLFIRRG | 0.275 ± 0.39
LSCWLYNPGYCVSVEFC | 6.906 ± 0.056
GRDSIRCLNTTEASKLYGGL | 0.609 ± 0.64
LCDMAIDVFCLSCCK | 6.652 ± 0.05
LASFMQRRAYSDGHDMLVRM | inactive
RVGILRMYSMFQFFKSLQWI | -0.372 ± 0.86

Substance | amyloid nucleation score
LTRVWSVTCVCSFGRPYK | 2.13 ± 0.27
HRFSCG | inactive
MDCCYYFFLIF | 4.15 ± 0.052
MSVEIVTIGGGF | -0.481 ± 1.4
SGMRRFRWLEVFSTDQRLEA | inactive
GWMYVSMLFGVG | -0.455 ± 1.7
FFRMMKSLFQMRVRIDCRMG | -0.653 ± 1.4
IWMLELSGFMKMVQGGHQVG | 3.06 ± 0.14
HIQRYMWKGGLEFVLIVRRA | 1.2 ± 0.4
YAHGGWDLVRRNS | 0.232 ± 0.86
YQYGAWNSANVSSNN | 1.19 ± 0.57
ALTRS | -0.074 ± 0.49
HAHVQCGESE | 0.092 ± 0.73
NHCCRVFMCFRIRGMYNAET | 4.05 ± 0.085
ELYCEVSSKIAGLDLFV | 0.57 ± 0.78
CTFSSWRESGFWTSLIHGYL | -0.218 ± 0.36
STNWFNYSNGNTVWDIGDYL | 0.4 ± 0.32
EVCVLRTLNRKNFDEPDNCI | 0.913 ± 0.56
LIFSNNWFYYTFYDS | 5.85 ± 0.087
EGRSWW | -0.691 ± 1.4
CDYAVGHNVDFYYLTSNPSG | -0.301 ± 0.53
VVSDNSMDV | 0.39 ± 0.47
SVSMY | 0.068 ± 0.27
DWLFLEFGHFTMPEHTKELE | -0.68 ± 1.2
FRIYLYLTCGLCSIIHYFVP | 0.818 ± 0.25

Substance | amyloid nucleation score
LILFVGIYTLHYYGFNRRYS | 0.272 ± 0.69
VAVTSSMFFRPNFNLNTVLS | 3.69 ± 0.067
GFRFW | 2.96 ± 0.11
AVCVEGQLANSGHRGTGNGN | 0.257 ± 0.48
DFNHYDRSSW | 2.45 ± 0.18
YILPEAEHSKGC | 0.803 ± 0.63
QTRVCTNDKSSFTLQTGRW | 3.26 ± 0.14
NVLGLFQLRDSTQNGAMYIL | 0.076 ± 0.62
PAGNNYDNNVSNNGTCKEFW | 0.294 ± 0.28
LAFNTIYWVIRIESFWLSAA | -0.189 ± 0.36
GHWSYYKVTSYYI | inactive
QSMSCRAFVVTSRLVHWGTQ | -0.438 ± 0.6
NRGSRTVLWDGNWAGTNTMP | -0.154 ± 0.47
FFLLIFSVRGNPFFIKW | -0.153 ± 0.66
LILEHNFWVRISYELVPCFW | 1.15 ± 0.3
KPGTNSYGCVYNHGFMGCTK | -0.245 ± 0.45
TFFRTTCTICCM | 5.01 ± 0.053
SNVVNGLDTYSQPGKGWCVR | 0.581 ± 0.37
FIRTRLIIYLSEDGYPVA | 1.31 ± 0.21
WLTTGFLFVKLGGHKESSVQ | 0.015 ± 0.33
MTPKLVQSRT | 0.106 ± 0.91
SASVAHLCDYVVENI | 0.018 ± 0.54
PMICFGWALIRYVTFQDLPV | 0.276 ± 0.45

Source: the supplement of paper PMC12042874
